Values of other authors as cited in paper PMC3185792.
Read-outs that look alike come from different tables or passages of the source.

How the values were obtained:
ICAM (Homo sapiens) [1] = biological target: ICAM (Homo sapiens) (UniProt P05362)
ICAM (Homo sapiens) [2] = biological target: ICAM (Homo sapiens) (UniProt P05362); remark: listed apart in the source

Chain of ICAM (Homo sapiens) (P05362 28-480): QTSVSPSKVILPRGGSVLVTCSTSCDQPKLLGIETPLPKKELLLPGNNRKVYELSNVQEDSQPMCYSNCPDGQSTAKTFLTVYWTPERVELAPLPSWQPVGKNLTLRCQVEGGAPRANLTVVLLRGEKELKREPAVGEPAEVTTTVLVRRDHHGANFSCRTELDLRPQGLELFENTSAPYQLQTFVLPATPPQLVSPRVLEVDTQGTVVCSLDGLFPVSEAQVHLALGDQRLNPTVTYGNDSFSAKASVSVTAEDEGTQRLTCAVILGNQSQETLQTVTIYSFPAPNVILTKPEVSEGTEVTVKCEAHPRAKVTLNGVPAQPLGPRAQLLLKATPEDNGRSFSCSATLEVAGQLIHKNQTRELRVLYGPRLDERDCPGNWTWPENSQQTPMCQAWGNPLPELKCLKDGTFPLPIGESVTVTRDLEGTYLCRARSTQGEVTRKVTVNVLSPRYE
Chain of LFA-1 integrin (closed conformation) (P20701 26-1090): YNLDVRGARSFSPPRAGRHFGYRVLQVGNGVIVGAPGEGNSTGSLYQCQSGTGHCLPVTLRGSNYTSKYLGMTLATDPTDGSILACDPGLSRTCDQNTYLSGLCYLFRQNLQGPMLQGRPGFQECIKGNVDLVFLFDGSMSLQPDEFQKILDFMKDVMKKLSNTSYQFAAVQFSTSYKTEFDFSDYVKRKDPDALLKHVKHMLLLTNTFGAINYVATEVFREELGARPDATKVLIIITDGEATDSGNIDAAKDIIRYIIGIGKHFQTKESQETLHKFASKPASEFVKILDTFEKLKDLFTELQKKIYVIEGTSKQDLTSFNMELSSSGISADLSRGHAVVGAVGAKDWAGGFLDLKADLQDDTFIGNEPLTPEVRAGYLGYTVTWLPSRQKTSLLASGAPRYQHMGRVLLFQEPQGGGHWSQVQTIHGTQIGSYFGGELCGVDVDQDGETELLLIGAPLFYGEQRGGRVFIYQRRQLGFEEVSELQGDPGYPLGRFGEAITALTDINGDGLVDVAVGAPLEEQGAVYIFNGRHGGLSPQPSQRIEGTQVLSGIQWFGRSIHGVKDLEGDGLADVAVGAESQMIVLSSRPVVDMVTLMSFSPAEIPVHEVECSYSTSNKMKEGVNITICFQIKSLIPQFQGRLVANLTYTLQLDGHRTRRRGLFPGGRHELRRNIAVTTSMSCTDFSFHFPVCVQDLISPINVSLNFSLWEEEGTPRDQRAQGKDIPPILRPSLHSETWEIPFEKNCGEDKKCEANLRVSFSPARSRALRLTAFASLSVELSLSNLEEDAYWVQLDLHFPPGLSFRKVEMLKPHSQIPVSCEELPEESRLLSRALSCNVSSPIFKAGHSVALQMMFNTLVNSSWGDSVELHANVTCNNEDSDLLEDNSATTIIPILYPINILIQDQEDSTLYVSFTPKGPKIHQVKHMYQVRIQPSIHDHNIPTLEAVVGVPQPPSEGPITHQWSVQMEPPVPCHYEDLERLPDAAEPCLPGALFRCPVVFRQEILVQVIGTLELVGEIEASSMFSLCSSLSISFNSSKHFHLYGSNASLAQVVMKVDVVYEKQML
Chain of LFA-1 integrin (closed conformation) (P05107 23-700, further chain): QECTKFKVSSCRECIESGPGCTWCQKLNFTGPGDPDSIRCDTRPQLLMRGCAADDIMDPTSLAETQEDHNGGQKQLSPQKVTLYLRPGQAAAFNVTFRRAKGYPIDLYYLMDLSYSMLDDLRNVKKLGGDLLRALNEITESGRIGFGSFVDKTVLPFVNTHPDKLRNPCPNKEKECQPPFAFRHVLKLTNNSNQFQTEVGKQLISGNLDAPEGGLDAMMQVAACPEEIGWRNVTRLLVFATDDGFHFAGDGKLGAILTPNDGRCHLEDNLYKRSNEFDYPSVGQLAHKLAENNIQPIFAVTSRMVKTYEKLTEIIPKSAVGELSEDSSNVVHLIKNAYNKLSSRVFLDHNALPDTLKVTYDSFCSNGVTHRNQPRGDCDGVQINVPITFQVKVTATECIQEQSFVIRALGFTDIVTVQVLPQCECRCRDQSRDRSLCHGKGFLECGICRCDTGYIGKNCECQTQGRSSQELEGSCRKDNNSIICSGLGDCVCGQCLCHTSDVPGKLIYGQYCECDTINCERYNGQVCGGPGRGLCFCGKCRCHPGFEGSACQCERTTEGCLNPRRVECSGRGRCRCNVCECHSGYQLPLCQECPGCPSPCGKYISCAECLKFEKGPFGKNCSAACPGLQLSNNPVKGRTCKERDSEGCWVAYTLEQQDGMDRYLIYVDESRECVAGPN
Chain of LFA-1 integrin (open conformation) (P20701 26-1090): as the sequence (P20701 26-1090) above
Chain of LFA-1 integrin (open conformation) (P05107 23-700, further chain): as the sequence (P05107 23-700, further chain) above

Row | Kd (ICAM (Homo sapiens) [1]) [µM] | Kd (ICAM (Homo sapiens) [2]) [µM] | Substance
1 | 100 | – | LFA-1 integrin (closed conformation) (from UniProt P20701)
2 | – | 0.4 | LFA-1 integrin (open conformation) (from UniProt P20701)
